Target: CD122/CD132 receptor on cells of human PBMCs (human) (UniProt P14784)
Assay: cell-based or functional assay

CD122/CD132 receptor on cells of human PBMCs (human), sequence (P14784 27-551, chain 1 of 2): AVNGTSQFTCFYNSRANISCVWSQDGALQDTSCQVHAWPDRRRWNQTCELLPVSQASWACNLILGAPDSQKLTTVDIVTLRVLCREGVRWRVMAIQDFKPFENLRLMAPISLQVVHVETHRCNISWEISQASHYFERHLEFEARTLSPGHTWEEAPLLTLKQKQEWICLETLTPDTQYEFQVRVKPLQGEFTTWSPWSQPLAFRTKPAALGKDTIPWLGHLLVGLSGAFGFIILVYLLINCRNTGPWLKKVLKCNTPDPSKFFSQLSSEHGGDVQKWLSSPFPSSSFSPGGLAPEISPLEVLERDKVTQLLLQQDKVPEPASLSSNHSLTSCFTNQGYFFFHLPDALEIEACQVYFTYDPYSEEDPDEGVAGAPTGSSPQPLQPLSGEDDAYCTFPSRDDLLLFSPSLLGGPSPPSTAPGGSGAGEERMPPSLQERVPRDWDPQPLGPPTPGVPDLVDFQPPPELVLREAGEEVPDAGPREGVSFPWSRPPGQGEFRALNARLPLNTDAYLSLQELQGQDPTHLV
CD122/CD132 receptor on cells of human PBMCs (human), sequence (P31785 23-369, chain 2 of 2, further chain): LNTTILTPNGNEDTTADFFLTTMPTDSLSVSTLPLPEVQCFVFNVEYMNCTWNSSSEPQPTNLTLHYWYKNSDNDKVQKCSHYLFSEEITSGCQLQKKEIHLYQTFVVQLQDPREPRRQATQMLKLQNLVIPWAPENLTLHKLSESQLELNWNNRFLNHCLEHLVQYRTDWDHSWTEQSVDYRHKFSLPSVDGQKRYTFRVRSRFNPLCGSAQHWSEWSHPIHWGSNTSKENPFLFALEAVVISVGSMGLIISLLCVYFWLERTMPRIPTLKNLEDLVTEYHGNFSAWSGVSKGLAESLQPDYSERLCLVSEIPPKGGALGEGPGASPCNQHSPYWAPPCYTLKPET

- pSTAT5 EC50, Treg (human PBMCs): 0.37 nM
- pSTAT5 Max. Signal, Treg (normalised to V69A/Q74P): 0.5
Substance: C-term N88D: irrelevant antibody with IL-2 N88D fused to its C-terminus (IgG-(IL-2N88D)2 of Peterson et al.)

Reference: US20210024601A1
